In patent US20200216522A1 (DENALI THERAPEUTICS, published 2020):

What was measured:
[1] = biological target: T1, Peptide_005 (human); assay: peptide array
T1 peptide: GDRKDQGGYTMHQDQ
Experimental: (§1) Chimeric IgG antibodies were diluted to a concentration of 5 μg/mL in 3% bovine serum albumin in Tris-buffered saline (10 mM Tris, pH 7.5, 150 mM NaCl) supplemented with 0.05% Tween®20 (3% BSA-TBST). Diluted antibodies were allowed to bind to peptides printed onto slides for 2 hours at room temperature as described in the PepStar™ user manual (JPT Technologies). Following extensive washing (5×5 minutes with TBST), slides were incubated with secondary antibodies goat anti-human IgG, Alexa Fluor 568 conjugate, 1 μg/mL in 3% BSA-TBST) for 1 hour at room temperature. After extensive washing, (5×5 minutes with TBST, then 5×5 minutes with ultrapure water), slides were dried overnight and imaged using an Opera Phenix™ system in the 568 nm channel. Images were aligned to peptide array definition files using Galviewer software obtained from JPT Technologies and ImageJ software with control human IgG serving as landmarks.
(§2) Full-length human Tau (encoded by the microtubule-associated protein Tau isoform 2 gene (MAPT), amino acid sequence NCBI Reference Sequence No. NP_005901.2, SEQ ID NO: 1, variant designation “2N4R”) was divided into 15 amino acid peptides, offset by 5 amino acids (overlapping by 10 amino acids). Peptides were synthesized and covalently attached to silica slides in triplicate with a spot size of 0.5 mm (obtained from JPT Technologies, Berlin, Germany). Antibodies muIgG were diluted to a concentration of 30 μg/mL in 3% bovine serum albumin in Tris-buffered saline (10 mM Tris, pH 7.5, 150 mM NaCl) supplemented with 0.05% Tween® 20 (3% BSA-TBST). Diluted antibodies were allowed to bind to peptides printed onto slides for 2 hours at room temperature as described in the Pepstar™ user manual (JPT Technologies). Following extensive washing (5×5 min TBST), slides were incubated with secondary antibodies (donkey anti-mouse IgG, Alexafluor 647 conjugate, 5 μg/mL in 3% BSA-TBST) for 1 hour at room temperature. After extensive washing, (5×5 minutes TBST, 5×5 minutes ultrapure water), slides were dried under a stream of nitrogen and imaged on the Opera Phenix in the 647 nm channel. Images were aligned to peptide array definition file using Galviewer software obtained from JPT Technologies and ImageJ software with control mouse IgG serving as landmarks.

[2] = biological target: T2, Peptide_002 (human); assay: peptide array
T2 peptide: QEFEVMEDHAGTYGL
Experimental: as §1, §2

[3] = biological target: T3, Peptide_001 (human); assay: peptide array
T3 peptide: MAEPRQEFEVMEDHA
Experimental: as §1, §2

[4] = biological target: T4, Peptide_024 (human); assay: peptide array
T4 peptide: DEAAGHVTQARMVSK
Experimental: as §1, §2

[5] = biological target: T5, Peptide_021 (human); assay: peptide array
T5 peptide: TTAEEAGIGDTPSLE
Experimental: as §1, §2

[6] = biological target: T6, Peptide_016 (human); assay: peptide array
T6 peptide: TAPLVDEGAPGKQAA
Experimental: as §1, §2

[7] = biological target: T7, Peptide_013 (human); assay: peptide array
T7 peptide: SETSDAKSTPTAEDV
Experimental: as §1, §2

[8] = biological target: T8, Peptide_036 (human); assay: peptide array
T8 peptide: PPAPKTPPSSGEPPK
Experimental: as §1, §2

[9] = biological target: T9, process-control peptide; assay: peptide array
T9 construct: array control, not a Tau peptide
T9 peptide: GGSGGGSDYKDDDDK
Experimental: as §1, §2

[10] = biological target: T10, Peptide_045 (human); assay: peptide array
T10 peptide: REPKKVAVVRTPPKS
Experimental: as §1, §2

[11] = biological target: T11, Peptide_043 (human); assay: peptide array
T11 peptide: RTPSLPTPPTREPKK
Experimental: as §1, §2

[12] = biological target: T12, Peptide_041 (human); assay: peptide array
T12 peptide: GSPGTPGSRSRTPSL
Experimental: as §1, §2

[13] = biological target: T13, Peptide_040 (human); assay: peptide array
T13 peptide: GYSSPGSPGTPGSRS
Experimental: as §1, §2

[14] = biological target: T14, Peptide_038 (human); assay: peptide array
T14 peptide: GEPPKSGDRSGYSSP
Experimental: as §1, §2

[15] = biological target: T15, Peptide_059 (human); assay: peptide array
T15 peptide: CGSKDNIKHVPGGGS
Experimental: as §1, §2

[16] = biological target: T16, Peptide_058 (human); assay: peptide array
T16 peptide: NVQSKCGSKDNIKHV
Experimental: as §1, §2

[17] = biological target: T17, Peptide_055 (human); assay: peptide array
T17 peptide: GGGKVQIINKKLDLS
Experimental: as §1, §2

[18] = biological target: T18, Peptide_053 (human); assay: peptide array
T18 peptide: GSTENLKHQPGGGKV
Experimental: as §1, §2

[19] = biological target: T19, Peptide_067 (human); assay: peptide array
T19 peptide: KPGGGQVEVKSEKLD
Experimental: as §1, §2

[20] = biological target: T20, Peptide_065 (human); assay: peptide array
T20 peptide: KCGSLGNIHHKPGGG
Experimental: as §1, §2

[21] = biological target: T21, Peptide_063 (human); assay: peptide array
T21 peptide: KPVDLSKVTSKCGSL
Experimental: as §1, §2

[22] = biological target: T22, Peptide_062 (human); assay: peptide array
T22 peptide: VQIVYKPVDLSKVTS
Experimental: as §1, §2

[23] = biological target: T23, Peptide_080 (human); assay: peptide array
T23 peptide: SPVVSGDTSPRHLSN
Experimental: as §1, §2

[24] = biological target: T24, Peptide_078 (human); assay: peptide array
T24 peptide: TDHGAEIVYKSPVVS
Experimental: as §1, §2

[25] = biological target: T25, Peptide_074 (human); assay: peptide array
T25 peptide: GGNKKIETHKLTFRE
Experimental: as §1, §2

[26] = biological target: T26, Peptide_072 (human); assay: peptide array
T26 peptide: SLDNITHVPGGGNKK
Experimental: as §1, §2

[27] = biological target: T27, Peptide_071 (human); assay: peptide array
T27 peptide: QSKIGSLDNITHVPG
Experimental: as §1, §2

[28] = biological target: T28, full-length human Tau (Tau441; 2N4R), recombinant (human, UniProt P10636 1-758); assay: Octet binning on biotin-r-Tau; competitor 1A5
T28 construct: made in E. coli, His6-Smt3 tag removed; biotinylated through amines for Octet and phage work; also called r-Tau; recombinant Tau
T28 sequence (P10636 other isoform, or with tags, fused parts or gaps limits assumed): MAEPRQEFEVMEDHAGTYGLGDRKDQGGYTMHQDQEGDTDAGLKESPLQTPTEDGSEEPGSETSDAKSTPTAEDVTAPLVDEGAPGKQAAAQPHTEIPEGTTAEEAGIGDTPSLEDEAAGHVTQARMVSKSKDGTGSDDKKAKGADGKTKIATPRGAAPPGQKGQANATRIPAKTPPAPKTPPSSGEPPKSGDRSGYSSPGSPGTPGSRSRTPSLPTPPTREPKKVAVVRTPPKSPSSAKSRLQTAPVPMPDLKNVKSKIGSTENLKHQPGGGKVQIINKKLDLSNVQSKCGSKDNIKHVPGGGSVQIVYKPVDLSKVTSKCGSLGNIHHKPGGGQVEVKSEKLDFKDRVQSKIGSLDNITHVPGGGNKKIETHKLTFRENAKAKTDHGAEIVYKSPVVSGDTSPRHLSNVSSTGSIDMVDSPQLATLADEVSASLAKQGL
Experimental: (§3) Epitope binning assays were performed using a FortéBio® Octet® RED384 instrument using FortéBio® Streptavidin biosensors. Biotinylated recombinant Tau was diluted to a concentration of 2 μg/mL in kinetic buffer (obtained from FortéBio®) and captured onto individual biosensors for 1 minute. A baseline was then established for 1 minute in kinetic buffer. The loaded biosensors were dipped into 10 μg/mL of the first chimeric IgG antibody until signal saturation, followed by dipping into 1 μg/mL of a second antibody. The binding for the second antibody was normalized to its total binding in the absence of the first antibody.

[29] = biological target: T28, full-length human Tau (Tau441; 2N4R), …; assay: Octet binning on biotin-r-Tau; row antibody Ab107 (anti-BACE1 control)
Experimental: as §3

B1: chimeric IgG clone 1D10 (antibody, V domains shown)
VH: EVQLQQSGAELVRPGASVKLSCTASGFNIKDSLMHWMKQRPEQGLEWIGWIDPEDGETKYAPKFQDKATLTADTSSNAAYLQLSSLTSEDTAIYYCVRGDWDGGYWGQGTTLTVSS
VL: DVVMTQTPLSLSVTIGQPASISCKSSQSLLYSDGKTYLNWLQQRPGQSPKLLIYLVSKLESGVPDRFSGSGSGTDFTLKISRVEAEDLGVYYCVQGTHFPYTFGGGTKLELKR
notes: mouse-human chimeric IgG from HEK293
B1: no binding (tested: 5 ug/mL) [1]; no binding (tested: 5 ug/mL) [2]; no binding (tested: 5 ug/mL) [3]. B1: no binding (tested: 5 ug/mL) [4]; no binding (tested: 5 ug/mL) [5]; no binding (tested: 5 ug/mL) [6]. B1: no binding (tested: 5 ug/mL) [7]; no binding (tested: 5 ug/mL) [8]; no binding (tested: 5 ug/mL) [9]. B1: no binding (tested: 5 ug/mL) [10]; no binding (tested: 5 ug/mL) [11]; no binding (tested: 5 ug/mL) [12]. B1: no binding (tested: 5 ug/mL) [13]; no binding (tested: 5 ug/mL) [14]; no binding (tested: 5 ug/mL) [15]. B1: no binding (tested: 5 ug/mL) [16]; no binding (tested: 5 ug/mL) [17]; no binding (tested: 5 ug/mL) [18]. B1: no binding (tested: 5 ug/mL) [19]; no binding (tested: 5 ug/mL) [20]; no binding (tested: 5 ug/mL) [21]. B1: no binding (tested: 5 ug/mL) [22]; no binding (tested: 5 ug/mL) [23]; no binding (tested: 5 ug/mL) [24]. B1: no binding (tested: 5 ug/mL) [25]; no binding (tested: 5 ug/mL) [26]; no binding (tested: 5 ug/mL) [27]. The “normalized binding of second antibody” value [28] was -0.07 and the “normalized binding of second antibody” value [29] was 1.
